T1: Noggin (Homo sapiens, UniProt Q13253)
T1 construct: purchased R&D Systems
T1 sequence (Q13253 28-232): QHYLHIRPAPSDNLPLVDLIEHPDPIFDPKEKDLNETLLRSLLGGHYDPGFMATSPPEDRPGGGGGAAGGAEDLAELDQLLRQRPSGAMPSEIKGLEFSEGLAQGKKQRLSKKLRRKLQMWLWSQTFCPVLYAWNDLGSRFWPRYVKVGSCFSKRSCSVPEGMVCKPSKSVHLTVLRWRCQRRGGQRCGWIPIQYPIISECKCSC

T2: Chordin-like 2 (Homo sapiens, UniProt Q6WN34)
T2 construct: purchased R&D Systems
T2 sequence (Q6WN34 26-429): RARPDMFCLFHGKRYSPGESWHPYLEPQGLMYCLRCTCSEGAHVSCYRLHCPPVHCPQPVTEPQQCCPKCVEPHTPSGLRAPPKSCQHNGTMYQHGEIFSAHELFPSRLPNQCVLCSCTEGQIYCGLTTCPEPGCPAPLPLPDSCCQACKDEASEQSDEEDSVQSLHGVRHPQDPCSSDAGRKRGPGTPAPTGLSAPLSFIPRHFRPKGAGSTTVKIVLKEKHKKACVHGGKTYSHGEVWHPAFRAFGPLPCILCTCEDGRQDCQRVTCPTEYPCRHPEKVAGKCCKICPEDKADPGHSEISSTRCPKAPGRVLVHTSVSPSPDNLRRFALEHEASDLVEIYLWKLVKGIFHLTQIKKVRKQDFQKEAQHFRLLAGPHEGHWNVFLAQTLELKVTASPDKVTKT

T3: Coco (Homo sapiens, UniProt Q8N907)
T3 construct: purchased R&D Systems
T3 sequence (Q8N907 23-189): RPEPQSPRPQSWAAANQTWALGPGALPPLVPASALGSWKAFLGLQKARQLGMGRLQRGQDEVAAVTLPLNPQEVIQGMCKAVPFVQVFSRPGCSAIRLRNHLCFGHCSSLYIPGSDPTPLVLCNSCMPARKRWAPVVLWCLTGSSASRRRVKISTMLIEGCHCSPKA


Legend:
[1] = Stir-induced aggregation (solubility) assay; format: physicochemical; conditions: 40 μg/mL, pH 7.4, stirred 400 rpm
Description: Solubility/physical stability of human BMP7 protein and human BMP7 protein variants may be measured in a stir-induced aggregation assay. Proteins are diluted to 40 μg/mL with assay buffer (50 mM sodium phosphate, 150 mM NaCl, pH 7.4) to a total volume of 2 mL. This solution may be put in a 7 mL glass vial containing one ‘flea’ stir bar and stirred at 400-rpm at room temperature. At periodic intervals (typically 0, 30, 60, 90, 120, and 150 minutes) a 150 μL aliquot may be withdrawn and centrifuged for 2 minutes at 16,000×g in a 1.5 mL tube. The supernatant (120 μL) may be transferred to an HPLC vial and the amount of remaining protein may be determined by reversed-phase HPLC under the following conditions: Zorbax C8 SB-300® column (3.5 micron, 4.6×50 mm), mobile phase: A buffer=0.1% TFA (v/v) in water, B buffer=0.085% TFA (v/v) in acetonitrile; flow rate at 1 mL/minute; column heated to 60° C.; autosampler cooled to 10° C., 214 nm UV detection, 80 μL injection, and 20 minute run time using the linear gradient indicated below. From the HPLC chromatograms (not shown) the protein peak or peaks (e.g., mature and pro domains) are integrated and percent change from initial peak area may be calculated.

Noggin = target: T1, Noggin; assay: BMP inhibitor activity, hepcidin promoter luciferase: Noggin; format: cell-based
Description: (§1) Briefly described, Hep3B2 cells stably transfected with a hepcidin promoter luciferase construct (hereinafter, referred to as Hep3B2_HepPro_luc cells) were used for BMP inhibitor experiments. Hep3B2_HepPro_luc cells may be plated at 30,000 cells per well in a tissue culture treated 96 well plate in DMEM (Hyclone) 5% FBS (Gibco) supplemented with non-essential amino acids (Hyclone) and 200 μg/ml gentecin (Hyclone) for 24 hours. Cells were then starved in OMEM+0.2% BSA for 5 hours. Cells were treated with a mixture of human BMP7 proteins and variants thereof in OMEM (Gibco)+0.2% BSA (Gibco) for 18 hours then developed for luciferase activity utilizing Luciferase reporter Gene Assay Kit (Roche). BMP7 proteins were added at concentrations in the linear range of the assay, at 1 nM and 100 pM. Inhibitors were added at various concentrations in molar excess of the particular BMP7 protein being tested. All BMP inhibitors except Follistatin were purchased from R&D Systems. Follistatin and BMP7 proteins and variants thereof were generated at Eli Lilly and Company.

Chordin = assay: BMP inhibitor activity, hepcidin promoter luciferase: Chordin; format: cell-based
Description: as §1

Chordin-like 2 = target: T2, Chordin-like 2; assay: BMP inhibitor activity, hepcidin promoter luciferase: Chordin-like 2; format: cell-based
Description: as §1

Follistatin = target: T4, Follistatin (Homo sapiens, UniProt P19883); assay: BMP inhibitor activity, hepcidin promoter luciferase: Follistatin; format: cell-based
T4 construct: made in house
T4 sequence (P19883 30-344, species assumed): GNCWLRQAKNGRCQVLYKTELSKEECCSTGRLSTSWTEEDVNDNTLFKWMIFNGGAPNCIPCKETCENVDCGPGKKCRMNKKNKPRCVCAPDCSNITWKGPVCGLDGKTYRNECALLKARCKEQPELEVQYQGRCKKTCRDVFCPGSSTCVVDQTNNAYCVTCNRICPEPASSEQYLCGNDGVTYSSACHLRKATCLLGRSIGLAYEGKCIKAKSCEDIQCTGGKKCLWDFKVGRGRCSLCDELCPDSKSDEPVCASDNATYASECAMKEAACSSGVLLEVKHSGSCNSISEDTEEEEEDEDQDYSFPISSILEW
Description: as §1

Coco = target: T3, Coco; assay: BMP inhibitor activity, hepcidin promoter luciferase: Coco; format: cell-based
Description: as §1

[2] = molar excess 100X, Hep3B2_HepPro_luc cells, 18 hours
[3] = Chordin-like 2, molar excess 0.1X
[4] = Chordin-like 2, molar excess 1X
[5] = Chordin-like 2, molar excess 10X
[6] = Chordin-like 2, molar excess 100X, Hep3B2_HepPro_luc cells, 18 hours

Molecule	Percent of Material Precipitated ([1]; 0 minutes) [%]	Percent of Material Precipitated ([1]; 30 minutes) [%]	Percent of Material Precipitated ([1]; 60 minutes) [%]	Percent of Material Precipitated ([1]; 90 minutes) [%]	Percent of Material Precipitated ([1]; 120 minutes) [%]	Percent of Material Precipitated ([1]; 150 minutes) [%]	% inhibition (Noggin; molar excess 0.1X) [%]	% inhibition (Noggin; molar excess 1X) [%]	% inhibition (Noggin; molar excess 10X) [%]	% inhibition (Chordin; molar excess 0.1X) [%]	% inhibition (Chordin; molar excess 1X) [%]	% inhibition (Chordin; molar excess 10X) [%]	% inhibition (Chordin-like 2; [3]) [%]	% inhibition (Chordin-like 2; [4]) [%]	% inhibition (Chordin-like 2; [5]) [%]	% inhibition (Follistatin; molar excess 0.1X) [%]	% inhibition (Follistatin; molar excess 1X) [%]	% inhibition (Follistatin; molar excess 10X) [%]	% inhibition (Coco; molar excess 0.1X) [%]	% inhibition (Coco; molar excess 1X) [%]	also measured
Wild type human pro-BMP7: homodimers of wild type human mature BMP7 in a non-covalent complex with wild type human pro-domain [reference compound]	0	8	42	51	65	72	−5.3	24.8	84.8	−15.1	−2.2	18.9	8.9	55.9	87.5	−10.4	5.9	29.5	−10.2	4.0	% inhibition (Noggin; [2]): 87.3%; % inhibition (Chordin; [2]): 76.5%; % inhibition (Chordin-like 2; [6]): 88.2%; % inhibition (Follistatin; [2]): 79.8%; % inhibition (Coco; molar excess 10X): 17.4%; % inhibition (Coco; [2]): 81.6%
Human mature BMP7 protein variant F9 (SEQ ID NO: 8): homodimer wherein each monomeric subunit has SEQ ID NO: 8 (Y65G/I86L/F93V/N110G/Y128W), disulfide linked (protein, homodimer, disulfide linked) STGSKQRSQNRSKTPKNQEALRMANVAENSSSDQRQACKKHELYVSFRDLGWQDWIIAPEGYAAGYCEGECAFPLNSYMNATNHALVQTLVHVINPETVPKPCCAPTQLGAISVLYFDDSSNVILKKWRNMVVRACGCH	0	7	23	24	37	39	−7.2	−6.9	−1.2	6.8	5.2	5.6	−3.2	−1.0	9.0	10.6	10.0	23.8	7.0	7.3	% inhibition (Noggin; molar excess 0.01X): −2.6%; % inhibition (Chordin; molar excess 0.01X): 3.7%; % inhibition (Chordin-like 2; Chordin-like 2, molar excess 0.01X): −1.5%; % inhibition (Follistatin; molar excess 0.01X): 3.9%; % inhibition (Coco; molar excess 0.01X): 2.3%; % inhibition (Coco; molar excess 10X): 28.5%
Wild type human mature BMP7 (SEQ ID NO: 2): dimer of two glycosylated, 139 amino acid disulfide-linked proteins of about 35 kDa, SEQ ID NO: 2 (protein, listed as Homo sapiens, disulfide-linked glycosylated homodimer) STGSKQRSQNRSKTPKNQEALRMANVAENSSSDQRQACKKHELYVSFRDLGWQDWIIAPEGYAAYYCEGECAFPLNSYMNATNHAIVQTLVHFINPETVPKPCCAPTQLNAISVLYFDDSSNVILKKYRNMVVRACGCH	100	100	100	100	100	100	−12.2	36.7	72.8	−13.1	−9.2	21.3	−13.7	49.0	69.5	−16.6	−11.9	21.1	−23.6	−25.9	% inhibition (Noggin; [2]): 73.7%; % inhibition (Chordin; [2]): 70.9%; % inhibition (Chordin-like 2; [6]): 71.9%; % inhibition (Follistatin; [2]): 54.7%; % inhibition (Coco; molar excess 10X): 37.6%; % inhibition (Coco; [2]): 77.4%

Reference: patent US11466066B2, “Variants of human BMP7 protein” (ELI LILLY AND COMPANY, priority 2017, dated 2022)
